The source of these data is PMC9814530 (2022).

In the experiment the target is human angiotensin converting enzyme 2 (ACE2), recombinant (human, UniProt Q9BYF1 18-740). The experiment is described as follows: BLI. Background: In BLI a coated tip is dipped into the sample, and binding shifts an interference pattern.

Where no end group is shown, it is not given here.

Sequence of human angiotensin converting enzyme 2 (ACE2), recombinant (Q9BYF1 18-740): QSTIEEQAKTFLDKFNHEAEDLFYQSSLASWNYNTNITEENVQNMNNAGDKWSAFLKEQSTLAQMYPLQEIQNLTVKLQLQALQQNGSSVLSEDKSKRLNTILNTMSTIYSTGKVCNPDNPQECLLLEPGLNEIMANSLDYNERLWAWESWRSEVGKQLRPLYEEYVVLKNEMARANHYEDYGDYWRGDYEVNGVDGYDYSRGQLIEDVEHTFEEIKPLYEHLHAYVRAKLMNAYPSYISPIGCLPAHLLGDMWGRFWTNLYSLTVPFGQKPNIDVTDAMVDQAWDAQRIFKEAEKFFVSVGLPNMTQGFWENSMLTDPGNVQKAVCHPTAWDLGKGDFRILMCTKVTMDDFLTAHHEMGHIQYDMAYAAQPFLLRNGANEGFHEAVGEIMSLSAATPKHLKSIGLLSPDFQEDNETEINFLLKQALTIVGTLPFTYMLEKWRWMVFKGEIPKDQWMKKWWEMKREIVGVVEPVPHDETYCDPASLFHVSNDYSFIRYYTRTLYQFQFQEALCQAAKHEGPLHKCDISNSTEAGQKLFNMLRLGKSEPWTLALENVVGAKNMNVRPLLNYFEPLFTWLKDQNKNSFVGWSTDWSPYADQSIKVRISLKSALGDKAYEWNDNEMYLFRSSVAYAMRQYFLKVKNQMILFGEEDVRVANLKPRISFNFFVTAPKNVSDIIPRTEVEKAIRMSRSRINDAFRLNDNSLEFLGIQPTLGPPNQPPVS

By Kd is commonly meant the concentration at which binding is half-saturated. Consider LHFAKWNHVWSWK-NH2 (also: biotinylated, position not given here) [ACE2-binding peptide ABP C2], for which the Kd came to 57 nM.
For the molecule LFRGYFAAMNNLK-NH2 (also: biotinylated, position not given here) [ACE2-binding peptide ABP C1], the Kd stood at 66 nM.
In the case of LKVKYMWDYLFGK-NH2 (also: biotinylated, position not given here) [ACE2-binding peptide ABP C4] it was 58 nM.
